From paper PMC9482650, “Quantitative fragmentomics allow affinity mapping of interactomes” (Nature Communications, 2022)

Experiments:
Assay in all cases: holdup assay
Design in all cases: key: below the threshold = too weak to quantify, mostly under pKd 3.1 to 4
[1] = molecular target: IL16_4, Q14005
[2] = molecular target: NHERF2_2, Q15599
[3] = molecular target: T1, MPP6, Q9NZW5
T1 sequence (Q9NZW5 125-219, limits assumed, looked up): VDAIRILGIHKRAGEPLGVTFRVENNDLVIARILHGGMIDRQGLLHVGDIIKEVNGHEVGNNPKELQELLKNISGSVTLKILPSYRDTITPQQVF

[4] = molecular target: PTPN3, P26045
[5] = molecular target: T2, DLG3_2, Q92796
T2 sequence (Q92796 221-321, limits assumed, looked up): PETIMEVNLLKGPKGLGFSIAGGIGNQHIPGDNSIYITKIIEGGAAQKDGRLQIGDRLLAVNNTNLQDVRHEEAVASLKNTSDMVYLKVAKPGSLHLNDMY

[6] = molecular target: MAST2, Q6P0Q8
[7] = molecular target: LDB3, O75112
[8] = molecular target: T3, SHANK1, Q9Y566
T3 sequence (Q9Y566 658-767, limits assumed, looked up): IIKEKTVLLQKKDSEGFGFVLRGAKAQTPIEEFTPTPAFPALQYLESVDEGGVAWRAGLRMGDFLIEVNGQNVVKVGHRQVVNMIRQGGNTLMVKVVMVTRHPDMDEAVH

[9] = molecular target: T4, NHERF3_3, Q5T2W1
T4 sequence (Q5T2W1 238-333, limits assumed, looked up): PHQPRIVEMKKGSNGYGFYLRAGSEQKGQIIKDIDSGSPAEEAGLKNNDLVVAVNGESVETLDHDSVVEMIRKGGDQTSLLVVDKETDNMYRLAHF

[10] = molecular target: T5, ARHGAP21, Q5T5U3
T5 sequence (Q5T5U3 45-169, limits assumed, looked up): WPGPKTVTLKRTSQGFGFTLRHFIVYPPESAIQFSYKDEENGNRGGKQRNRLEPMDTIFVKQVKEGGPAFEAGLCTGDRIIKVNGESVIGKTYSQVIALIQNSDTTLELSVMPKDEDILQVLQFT

[11] = molecular target: SNX27, Q96L92
[12] = molecular target: T6, ARHGEF11, O15085
T6 sequence (O15085 42-136, limits assumed, looked up): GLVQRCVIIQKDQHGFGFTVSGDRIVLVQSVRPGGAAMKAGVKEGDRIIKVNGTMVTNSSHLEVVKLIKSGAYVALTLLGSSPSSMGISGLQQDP

[13] = molecular target: T7, SIPA1L2, Q9P2F8
T7 sequence (Q9P2F8 945-1036, limits assumed, looked up): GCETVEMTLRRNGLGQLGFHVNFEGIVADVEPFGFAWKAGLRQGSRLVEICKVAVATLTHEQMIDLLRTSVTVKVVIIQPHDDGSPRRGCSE

[14] = molecular target: T8, LNX2_2, Q8N448
T8 sequence (Q8N448 334-432, limits assumed, looked up): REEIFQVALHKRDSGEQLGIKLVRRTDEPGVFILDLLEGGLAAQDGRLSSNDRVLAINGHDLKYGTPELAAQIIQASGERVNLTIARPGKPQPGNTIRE

[15] = molecular target: T9, PDZRN3_1, Q9UPQ7
T9 sequence (Q9UPQ7 244-349, limits assumed, looked up): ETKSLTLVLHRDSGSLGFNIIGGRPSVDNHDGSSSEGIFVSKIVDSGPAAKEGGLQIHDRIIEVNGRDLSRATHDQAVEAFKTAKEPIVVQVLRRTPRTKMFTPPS

[16] = molecular target: NHERF4_4, Q86UT5
[17] = molecular target: MAST1, Q9Y2H9
[18] = molecular target: IL16_1, Q14005
[19] = molecular target: Inadl_8, Q8NI35
[20] = molecular target: PICK1, Q9NRD5
[21] = molecular target: TJP1_2, Q07157
[22] = molecular target: DLG5_1, Q8TDM6
[23] = molecular target: GORASP1, Q9BQQ3
[24] = molecular target: T10, PCLO, Q9Y6V0
T10 sequence (Q9Y6V0 4491-4600, limits assumed, looked up): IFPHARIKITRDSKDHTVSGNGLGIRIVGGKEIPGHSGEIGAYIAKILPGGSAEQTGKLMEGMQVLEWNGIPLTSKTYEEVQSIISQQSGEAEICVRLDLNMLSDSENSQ

[25] = molecular target: T11, RHPN1, Q8TCX5
T11 sequence (Q8TCX5 508-602, limits assumed, looked up): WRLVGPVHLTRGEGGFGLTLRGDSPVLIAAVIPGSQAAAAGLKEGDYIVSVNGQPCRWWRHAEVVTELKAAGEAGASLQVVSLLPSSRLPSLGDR

[26] = molecular target: GRIP2_5, Q9C0E4
[27] = molecular target: Inadl_2, Q8NI35
[28] = plain residues with an end cap or a label only (N-terminal biotin on a linker: none)
[29] = plain residues with an end cap or a label only (N-terminal biotin on a linker: ttds)
[30] = plain residues with an end cap or a label only (N-terminal biotin on a linker: ahx)
[31] = plain residues with an end cap or a label only (N-terminal biotin on a linker: ado-ado)

Chain of Inadl_8, Q8NI35 (Q8NI35 1425-1530): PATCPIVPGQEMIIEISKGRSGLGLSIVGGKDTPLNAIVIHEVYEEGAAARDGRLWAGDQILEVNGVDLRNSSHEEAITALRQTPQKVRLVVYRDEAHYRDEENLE
Chain of Inadl_2, Q8NI35 (Q8NI35 238-335): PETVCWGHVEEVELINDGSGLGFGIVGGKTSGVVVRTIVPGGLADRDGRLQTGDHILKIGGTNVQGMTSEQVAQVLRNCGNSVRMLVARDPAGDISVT
Chain of DLG5_1, Q8TDM6 (Q8TDM6 617-713): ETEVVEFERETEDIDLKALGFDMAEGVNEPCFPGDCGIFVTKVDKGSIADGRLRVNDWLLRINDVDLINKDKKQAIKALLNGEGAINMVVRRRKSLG
Chain of MAST1, Q9Y2H9 (Q9Y2H9 962-1065): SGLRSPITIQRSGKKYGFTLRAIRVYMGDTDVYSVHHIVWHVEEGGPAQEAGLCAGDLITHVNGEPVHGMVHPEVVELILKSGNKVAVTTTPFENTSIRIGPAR
Chain of IL16_4, Q14005 (Q14005 1229-1329): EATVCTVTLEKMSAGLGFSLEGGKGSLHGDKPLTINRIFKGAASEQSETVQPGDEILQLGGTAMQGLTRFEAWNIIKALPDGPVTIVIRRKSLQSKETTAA
Chain of TJP1_2, Q07157 (Q07157 181-274): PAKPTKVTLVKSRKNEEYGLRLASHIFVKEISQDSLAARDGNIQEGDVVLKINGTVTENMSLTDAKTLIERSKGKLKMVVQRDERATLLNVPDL
Chain of GRIP2_5, Q9C0E4 (Q9C0E4 544-642): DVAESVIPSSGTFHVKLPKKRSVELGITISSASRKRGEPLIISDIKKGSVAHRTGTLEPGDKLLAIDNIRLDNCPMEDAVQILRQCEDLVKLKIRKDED
Chain of PTPN3, P26045 (P26045 505-587): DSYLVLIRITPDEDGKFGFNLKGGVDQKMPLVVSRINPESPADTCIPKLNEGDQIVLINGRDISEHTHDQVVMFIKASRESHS
Chain of NHERF2_2, Q15599 (Q15599 142-238): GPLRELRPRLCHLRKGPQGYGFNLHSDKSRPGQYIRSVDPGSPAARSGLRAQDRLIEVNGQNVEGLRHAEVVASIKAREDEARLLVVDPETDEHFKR
Chain of PICK1, Q9NRD5 (Q9NRD5 17-115): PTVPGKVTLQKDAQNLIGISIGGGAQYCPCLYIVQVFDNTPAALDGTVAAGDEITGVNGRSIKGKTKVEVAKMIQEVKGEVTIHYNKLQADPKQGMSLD
Chain of MAST2, Q6P0Q8 (Q6P0Q8 1099-1202): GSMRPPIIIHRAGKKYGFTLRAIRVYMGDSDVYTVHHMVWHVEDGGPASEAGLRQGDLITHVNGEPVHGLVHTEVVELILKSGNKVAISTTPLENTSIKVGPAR
Chain of LDB3, O75112 (O75112 1-94): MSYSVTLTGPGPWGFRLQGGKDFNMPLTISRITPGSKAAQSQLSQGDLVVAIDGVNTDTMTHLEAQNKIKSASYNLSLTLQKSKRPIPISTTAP
Chain of NHERF4_4, Q86UT5 (Q86UT5 464-550): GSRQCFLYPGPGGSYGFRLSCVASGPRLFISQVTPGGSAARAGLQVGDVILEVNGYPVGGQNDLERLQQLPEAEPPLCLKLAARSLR
Chain of IL16_1, Q14005 (Q14005 210-306): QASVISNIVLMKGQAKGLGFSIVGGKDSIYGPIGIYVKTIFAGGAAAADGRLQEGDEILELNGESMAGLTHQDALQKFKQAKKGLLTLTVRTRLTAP
Chain of GORASP1, Q9BQQ3 (Q9BQQ3 1-208): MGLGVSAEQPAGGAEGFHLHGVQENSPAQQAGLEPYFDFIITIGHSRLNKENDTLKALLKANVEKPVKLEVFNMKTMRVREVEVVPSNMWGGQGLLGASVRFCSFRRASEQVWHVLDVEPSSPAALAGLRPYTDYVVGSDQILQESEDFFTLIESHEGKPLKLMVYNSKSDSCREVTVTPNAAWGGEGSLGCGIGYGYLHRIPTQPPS

B1: MERS-E, K9N5R3 (peptide)
chain: DSKPPLPPDEWV
In the case of B1, the pKd [1, 28] is reported as “below the threshold”, the pKd [2, 28] is reported as “below the threshold” and the pKd [3, 28] is reported as “below the threshold”. The pKd [4, 28] was 3.87, the pKd [5, 28] was 3.96 and the pKd [6, 28] was 3.66. The pKd [7, 28] was “below the threshold”, the pKd [8, 28] was “below the threshold” and the pKd [9, 28] was “below the threshold”. It also gave a pKd [10, 28] of 3.76, a pKd [11, 28] of 4.56 and a pKd [12, 28] of 3.91. The pKd [13, 28] was “below the threshold”, the pKd [14, 28] was 4.44 and the pKd [15, 28] was “below the threshold”. The pKd [16, 28] was “below the threshold”, the pKd [17, 28] was 3.91 and the pKd [18, 28] was 3.64. For the same binder, the pKd [19, 28] was 3.55, the pKd [20, 28] was “below the threshold” and the pKd [21, 28] was 4.16. The pKd [22, 28] was “below the threshold”, the pKd [23, 28] was 4.29 and the pKd [24, 28] was “below the threshold”. The pKd [25, 28] was “below the threshold”, the pKd [26, 28] was “below the threshold” and the pKd [27, 28] was “below the threshold”.

B2: CBP, Q92793 (peptide)
chain: TGDTLEKFVEGL
With B2 the pKd [1, 29] was “below the threshold”, the pKd [2, 29] was “below the threshold” and the pKd [3, 29] was “below the threshold”. The pKd [4, 29] was “below the threshold”, the pKd [5, 29] was “below the threshold” and the pKd [6, 29] was “below the threshold”. For the same binder, the pKd [7, 29] was “below the threshold”, the pKd [8, 29] was “below the threshold” and the pKd [9, 29] was “below the threshold”. For the same binder, the pKd [10, 29] was “below the threshold”, the pKd [11, 29] was “below the threshold” and the pKd [12, 29] was “below the threshold”. The pKd [13, 29] was “below the threshold”, the pKd [14, 29] was “below the threshold” and the pKd [15, 29] was “below the threshold”. The pKd [16, 29] was “below the threshold”, the pKd [17, 29] was “below the threshold” and the pKd [18, 29] was “below the threshold”. For the same binder, the pKd [19, 29] was “below the threshold”, the pKd [20, 29] was “below the threshold” and the pKd [21, 29] was “below the threshold”. For the same binder, the pKd [22, 29] was “below the threshold”, the pKd [23, 29] was “below the threshold” and the pKd [24, 29] was “below the threshold”. The pKd [25, 29] was “below the threshold”, the pKd [26, 29] was “below the threshold” and the pKd [27, 29] was “below the threshold”.

B3: APC, P25054 (peptide)
chain: HSGSYLVTSV
B3 was tested, and the pKd [1, 30] was “below the threshold”, the pKd [2, 30] was “below the threshold” and the pKd [3, 30] was “below the threshold”. It also gave a pKd [4, 30] of 4.64, a pKd [5, 30] of 5.07 and a pKd [6, 30] of 5.11. The pKd [7, 30] was “below the threshold”, the pKd [8, 30] was 4.1 and the pKd [9, 30] was “below the threshold”. The pKd [10, 30] was “below the threshold”, the pKd [11, 30] was 5.52 and the pKd [12, 30] was 4.59. The pKd [13, 30] was “below the threshold”, the pKd [14, 30] was 4.56 and the pKd [15, 30] was “below the threshold”. For the same binder, the pKd [16, 30] was “below the threshold”, the pKd [17, 30] was 4.22 and the pKd [18, 30] was 3.58. For the same binder, the pKd [19, 30] was 4.84, the pKd [20, 30] was “below the threshold” and the pKd [21, 30] was “below the threshold”. For the same binder, the pKd [22, 30] was “below the threshold”, the pKd [23, 30] was 3.61 and the pKd [24, 30] was “below the threshold”. The pKd [25, 30] was 5.16, the pKd [26, 30] was “below the threshold” and the pKd [27, 30] was “below the threshold”.

B4: NCBP2L, A6PVI3 (peptide)
chain: RGGFGRQTQI
In the case of B4, the pKd [1, 31] is reported as “below the threshold”, the pKd [2, 31] is reported as “below the threshold” and the pKd [3, 31] is reported as “below the threshold”. For the same binder, the pKd [4, 31] was 4.49, the pKd [5, 31] was 4.68 and the pKd [6, 31] was 5.6. For the same binder, the pKd [7, 31] was 3.66, the pKd [8, 31] was “below the threshold” and the pKd [9, 31] was “below the threshold”. The pKd [10, 31] was “below the threshold”, the pKd [11, 31] was “below the threshold” and the pKd [12, 31] was “below the threshold”. The pKd [13, 31] was “below the threshold”, the pKd [14, 31] was “below the threshold” and the pKd [15, 31] was 3.74. For the same binder, the pKd [16, 31] was “below the threshold”, the pKd [17, 31] was 4.6 and the pKd [18, 31] was “below the threshold”. For the same binder, the pKd [19, 31] was 3.49, the pKd [20, 31] was “below the threshold” and the pKd [21, 31] was “below the threshold”. For the same binder, the pKd [22, 31] was “below the threshold”, the pKd [23, 31] was 3.53 and the pKd [24, 31] was “below the threshold”. The pKd [25, 31] was 4.5, the pKd [26, 31] was “below the threshold” and the pKd [27, 31] was “below the threshold”.
